The values below come from article PMC6833485.

The series addresses thrombin (Homo sapiens, UniProt P00734;P00734 328-363;364-622). Nature of the series: reflectometric interference spectroscopy (RIfS), immobilized aptamer; PBS + MgCl2; sigmoidal fit of dEOT; Binding buffer PBS + MgCl2 (concentration, pH not given); TBA preheated 95 °C 5 min, cooled to room temperature; flow cell, assay temperature not stated.

As for GGTTGGTGTGGTTGG (structured_DNA, 5'-biotin) [TBA 15-mer (5'-biotin)], the Kd was 900 nM.

A word on the Kd: it is the equilibrium constant for the complex coming apart.
